Measured values from paper PMC9170038.

What was measured:
[1] = biological target: T1, MS2 coat protein, dlFG mutant (Escherichia phage MS2, UniProt P03612, del68-81insG); assay: 4 mM Mg2+; FMN 200 uM; RNA-MaP array; 100 mM Tris-HCl pH 7.5, 80 mM KCl, 4 mM MgCl2, 0.1 mg/mL BSA, 1 mM DTT, 0.01 mg/mL yeast tRNA, 0.01% Tween-20; protein 1.5 nM to 3 uM; 37 C (Table S3); details: chain copies: 2; label: tethered by stalled RNA polymerase
[2] = biological target: T1, MS2 coat protein, dlFG mutant; assay: 4 mM Mg2+; no ligand; RNA-MaP array; 100 mM Tris-HCl pH 7.5, 80 mM KCl, 4 mM MgCl2, 0.1 mg/mL BSA, 1 mM DTT, 0.01 mg/mL yeast tRNA, 0.01% Tween-20; protein 1.5 nM to 3 uM; 37 C (Table S3); details: chain copies: 2; label: tethered by stalled RNA polymerase

| Binder | Kd [1] [nM] | Kd [2] [nM] |
| --- | --- | --- |
| Eterna 5956827 (Exclusion NG 2) (ssRNA) RNA: UUUGUUUUGCAAGGAUAUGUUUAAUUUUAGUUUCCUUACACAUGAGGAUCACCCAUGUUAUACUUACAGAAGGUGCGUAAUUUU | 94 | – |
| Eterna 7729929 (Exclusion - Tryptophan B) (ssRNA) RNA: GGAUAGGACACGGCCGCCACUAGCUAGGAUACUAGCAACAUUUCCUCAUCUGAGGAUCACCCAGGUAGGACCGGGUGUCCUAUCG | – | 563 |
| Eterna 7691696 (Same State - Theophylline B) (ssRNA) RNA: UGUCAUUGGUCUGAUACCAGAAGAUAAUCUGGAGUGAUGUUCCAAGUACGACAAAGUCGCUUCCCUUGGCAGCAGACCGAUGACU | – | > 3000 |
| Eterna 6424838 (Exclusion NG 2) (ssRNA) RNA: GCCGGUUCCCUAGGAUAUGUACAUGAGGAUCACCCAUGUGCCUCUAGAGCCGGAACAGGGCAUGUACAGAAGGAGGGUCGACCC | – | 7.13 |
| Eterna 7684615 (Exclusion - Tryptophan A) (ssRNA) RNA: AAAAUUGCGGUCGAUAGAACUUUUUGCUUACGAGGACCGGUACGGCCGCCACUCGAGUCAAGUGAUGUUUGAUUUUCUAUUAUUA | – | > 3000 |
| Eterna 6063666 (Exclusion 4) (ssRNA) RNA: UAUGUGUCAGGAUAUUGUUAAUUUAGUUGUUUGUAUUAGUUCGAGAAGGGACAUGAGGAUCACCCAUGUUGUUU | 31.1 | – |
| Eterna 6108893 (Exclusion NG 1) (ssRNA) RNA: GCGUAAAAUGUAGGAUAUGACACAGGAAACUGGUCAGAAGGACAUGAGGAUCACCCAUGUAAAAUGUUCAAGAAUAACUCAUGC | – | 123 |
| Eterna 15621 (Same State 1) (ssRNA) RNA: GCAUCACAUGAGGAUCACCCAUGUCUUCGGAGCGGAGGAUAUGGUCACUGUAAACAGUGGCCAGAAGGCUGGAUGC | – | 32.4 |
| Eterna 6389671 (Inverted Exclusion NG 2) (ssRNA) RNA: ACUUGUAAGUAGAAGGUAGUCAUUAUAUUAAUCAUGUAAACAUGAGGAUCACCCAUGUAGAGUACUAAGGAUAUACAUCGAUAG | – | 15.2 |
| Eterna 6456627 (Same State NG 3) (ssRNA) RNA: GCGCCUCAGAACAUGAGGAUCACCCAUGUGCUGCGGGCGCCGUAGGAUAUGAUGGUACGCUACCAUCAGAAGGAUGAUGGUACC | – | 4.99 |
| Eterna 6049957 (Exclusion 6) (ssRNA) RNA: CUGAGUAGUCAGGAUAUGUGGUACAAAAGUACUGCAGAAGGGAUUACAUGAGGAUCACCCAUGUUUUCUUCAUG | – | 52 |
| Eterna 7681766 (Exclusion - Tryptophan A) (ssRNA) RNA: UGUGAACAAAAGUAGAGUGGACCACUAUAGCGAGGACCGGUACGGCCGCCACUCGUAUAUAAAUUCAGUGAUGUUGAAAAGAGCU | – | > 3000 |
| Eterna 6443759 (Same State NG 2) (ssRNA) RNA: AUUAUAAUUGAAGGAUAUCUAUAUCCAACAUGAGGAUCACCCAUGUUGAGGAUCACCCAUGUAAAGGAGAAGGUUAAUUAUAAU | – | 101 |
| Eterna 7724662 (Same State - FMN B) (ssRNA) RNA: GUAUCGCUAGGAGGAUAUUUCAAAUAACAAAUAAAUGGUUAUACGGAGUGAUGUUCCGAUUUACGGAAAGAAGGCCUAGUGAUAC | – | > 3000 |
| Eterna 6056927 (Brourd's mod of Exclusion 4) (ssRNA) RNA: GGUCCUUCUGUUAGGAUAUGCUAUGGGCUUCCGCAGUAGAAGGAACAUGAGGAUCACCCAUGUCCGAUGCCGUA | – | 67.5 |
| Eterna 5958224 (Same State NG 3) (ssRNA) RNA: CGAGGCGUACAUGAGGAUCACCCAUGUACCUAACAACAAAGCAAGGAUAUCCUGGCUAUAAUACAGGAGAAGGUGUGGUCCUUA | – | 135 |
| Eterna 11587 (Sensor for hsa-mir-208a) (ssRNA) RNA: AUUUAACAAGCUUUUUGCUCGUCUUAUAAACAUGAGGAUCACCCAUGUAAUAGCGUGAGAGUAAAUAAUUUAAUAAU | – | 11.3 |
| Eterna 7684249 (Exclusion - Tryptophan B) (ssRNA) RNA: UUUAUAAUGUCGGCCGCCACUGGAUUAAUAUUUGUAUAAUCUAGUUCUGAGUGAUGUUUAGAGUCCAGGACCGGGACAUUUGUUA | – | > 3000 |
| Eterna 7747481 (Same State - Arginine B) (ssRNA) RNA: GCCGUAGAUUGAAGGAGCGACAUAAACGAUGUUCUGGUAGUGAUGUUACCUUAGCAGGCAUGUCAGGUAGGUCGCAAUCUACGGC | – | > 3000 |
| Eterna 6429368 (Inverted Exclusion NG 2) (ssRNA) RNA: AUGUCUUAGUAGAAGGGACAUCGGCUGGUAAGCAUCAUCUCCUUCUCACAUGAGGAUCACCCAUGUCAGGAUAUACUAAGAUAC | – | 12.8 |

| Binder | Kd [1] [nM] | Kd [2] [nM] |
| --- | --- | --- |
| Eterna 6411926 (Small Loop Same State NG 1) (ssRNA) RNA: GUAUUUAGAUAAGGAUAUAAGUCUAUGACAUGAGGAUCACCCAUGUGUGUCUUAGAAGGUAUUUGGGUAAUAUUGUUACAGUAA | – | 44.2 |
| Eterna 6136258 (Same State NG 2) (ssRNA) RNA: UAAUCUCAGAUAGGAUAUAUAGGAUAACUUAAGACCUAACAUGAGGAUCACCCAUGUGAUUAUUCGUAGAAGGAUCAUUGACCC | – | 162 |
| Eterna 7710140 (Exclusion - Tryptophan A) (ssRNA) RNA: AGCUCGCAAUCCUCAGCGUCAAAGACGCGUCGAGGACCGGUACGGCCGCCACUCGACAAGAGGAUCACCCUUGUCUAAGCGAGCA | – | 330 |
| Eterna 6430991 (Inverted Small Loop Exclusion NG 1) (ssRNA) RNA: CCUCGCUGUUAGAAGGCACCUUCGGCUUUGGCUUUUGGAGUUGGGCGAUGGUGAGGAUAUAACAUGAGGAUCACCCAUGUUCAA | – | 9.79 |
| Eterna 7637577 (Same State - Tryptophan B) (ssRNA) RNA: GUAGCUAUCGCGGCCGCCACUAAACCGGAAACGGAACAGGAGGAUCACCCUUGUGGCGAAAGCCAUAGGACCGGGCGAUAGCUAC | – | 483 |
| Eterna 6420697 (Small Loop Exclusion NG 3) (ssRNA) RNA: AUCGUUGACUGGACGAGAAUAGGGCAGGAUAUACAUGAGGAUCACCCAUGUGAAGCACGAAAGAGGUAGAAGGGCCCACGUCAU | – | 16.1 |
| Eterna 1282 (Exclusion - Tryptophan B) (ssRNA) RNA: GGAUUGCGUUCGGCCGCCACUAGACUACAUUCCACGCCCGACCCGUUUUUAAGUGAUGUUUAAACUAGGACCGGGAACCGAUUUC | – | > 3000 |
| Eterna 6079023 (Exclusion 4) (ssRNA) RNA: UUCACGUCAGGAUAUCCAUAUUUCCGAAAUAACGGUACUUUGGAGAAGGGACAUGAGGAUCACCCAUGUCCUCG | – | 17.9 |
| Eterna 9759 (Exclusion 4) (ssRNA) RNA: GUCGAGUGAGGAUAUGGUGAGUAGUGCCUGAGCGCUGCUCACCAGAAGGCACAUGAGGAUCACCCAUGUAUAGC | – | 16.7 |
| Eterna 7627109 (Same State - Theophylline A) (ssRNA) RNA: CUCCGAGGCUAUACUAUCCGCCUCUGUGAUACCAGAAUACCUAUAUUCCCUUGGCAGCAUCACAUGAGGAUCACCCAUGUGCCAU | – | 13.2 |
| Eterna 7727988 (Exclusion - Theophylline B) (ssRNA) RNA: GGGAACUCUUACGAUACCAGCCGGAGUGAUGUUCCGCGCUUGGACGUAGUAACCCGCACCGGCCCUUGGCAGCGUGGAUCUUAUA | – | > 3000 |
| Eterna 6457817 (Inverted Small Loop Same State NG 3) (ssRNA) RNA: GCGUAAUAGGUGUAGCUAGUCGUUCAAGAAGGGUGAAGAACAUGAGGAUCACCCAUGUGGUCUAUACAGGAUAUUGAUAUACGC | – | 607 |
| Eterna 6002686 (Brourd's mod of Exclusion 4) (ssRNA) RNA: UAACAAAUUGUCAGGAUAUCAGUCCCGGCCCAGAUUGAGAAGGGACAUGAGGAUCACCCAUGUAUGAUUCUCAG | – | 93.5 |
| Eterna 7730944 (Same State - Tryptophan A) (ssRNA) RNA: UAAAACGCUUGAAUAACAAGCGAAAAUUCGCGAGGACCGGUACGGCCGCCACUCGCUAACUGCGAGUGAUGUUCGAUAAUAAAAU | – | > 3000 |
| Eterna 6430949 (Inverted Small Loop Exclusion NG 1) (ssRNA) RNA: GGGACCUACGAGAAGGGCUACAUGAGGAUCACCCAUGUAAAUCUUCGGGUGGCAGGAUAUCGGCGGCUACAGGAGGGCCAGGUC | – | 8.57 |
| Eterna 6084857 (Exclusion 6) (ssRNA) RNA: UCAAAUACUGAGGAUAUAACGACUGAAUCCGCGUUAGAAGGUAGUACAUGAGGAUCACCCAUGUCAACCAGAGG | – | 17.2 |
| Eterna 7730362 (Exclusion - Arginine B) (ssRNA) RNA: GGACUAACCAGAAGGAGCGGCGCGCAGAAACUGCUAAUUCCUCCGCACGAGGAUCACCCGUGUCAGGUAGGUCGCUGGUUAGUCG | – | 10 |
| Eterna 7672552 (Same State - Tryptophan A) (ssRNA) RNA: UAAGAAUAAGUAGCAGUGAUGUUGCUACUACGAGGACCGGUACGGCCGCCACUCGAGUCCUCGAAACAUCACUGAACGAGGAAUA | – | > 3000 |
| Eterna 6457182 (Inverted Small Loop Same State NG 1) (ssRNA) RNA: CGUCUAUGCAAGAAGGCAUGAAACAUGAGGAUCACCCAUGUCAAAGACAUGAGGAUAUUGCAUAGACGAAAAGUGCGAAAGCAC | – | 4.44 |
